B1: Hairpin Ribozyme (parent)
chain: GUCCUCUUUCACGUGCGCGUGAAAGAGAGAAGUGAACCAGAGAAACACACGUUGUGGUAUAUUACCUGGUA

Variants of: B1
Assay: self-cleavage, relative activity (ratio to wild type); higher = more cleavage; co-transcriptional

Variant	self-cleavage
GUCCUCUUUCACGUGCGCGUGAAAGAGAGAAGUGAACCAGAGAAACACACGUUCUGAUAUAUUACCUGGUA [G54C G57A]	0.0995
GUCCUCUUUCACGUGCGCGUGAAAGAGAGAAGUGAACCAGAGAAACACACGUUUUGCUAUAUUACCUGGUA [G54U G57C]	0.177
GUCCUCUUUCACGUGCGCGUGAAAGAGAGAAGUGAACCAGAGAAACACACGUUUUGUUAUAUUACCUGGUA [G54U G57U]	0.282
GUCCUCUUUCACGUGCGCGUGAAAGAGAGAAGUGAACCAGAGAAACACACGUUUUGAUAUAUUACCUGGUA [G54U G57A]	0.164
GUCCUCUUUCACGUGCGCGUGAAAGAGAGAAGUGAACCAGAGAAACACACGUUGAGGUAUAUUUCCUGGUA [U55A A64U]	0.302
GUCCUCUUUCACGUGCGCGUGAAAGAGAGAAGUGAACCAGAGAAACACACGUUCUGGUAUUUUACCUGGUA [G54C A61U]	0.105
GUCCUCUUUCACGUGCGCGUGAAAGAGAGAAGUGAACCAGAGAAACACACGUUCUGGUAUGUUACCUGGUA [G54C A61G]	0.0386
GUCCUCUUUCACGUGCGCGUGAAAGAGAGAAGUGAACCAGAGAAACACACGUUCUGGGAUAUUACCUGGUA [G54C U58G]	0.272
GUCCUCUUUCACGUGCGCGUGAAAGAGAGAAGUGAACCAGAGAAACACACGUUCUGGCAUAUUACCUGGUA [G54C U58C]	0.478
GUCCUCUUUCACGUGCGCGUGAAAGAGAGAAGUGAACCAGAGAAACACACGUUCUGGAAUAUUACCUGGUA [G54C U58A]	0.334
GUCCUCUUUCACGUGCGCGUGAAAGAGAGAAGUGAACCAGAGAAACACACGUUUUGGUAUCUUACCUGGUA [G54U A61C]	0.152
GUCCUCUUUCACGUGCGCGUGAAAGAGAGAAGUGAACCAGAGAAACACACGUUAGGGUAUAUUACCUGGUA [G54A U55G]	0.162
GUCCUCUUUCACGUGCGCGUGAAAGAGAGAAGUGAACCAGAGAAACACACGUUAAGGUAUAUUACCUGGUA [G54A U55A]	0.39
GUCCUCUUUCACGUGCGCGUGAAAGAGAGAAGUGAACCAGAGAAACACACGUUGCGGUAUAUUAUCUGGUA [U55C C65U]	0.27
GUCCUCUUUCACGUGCGCGUGAAAGAGAGAAGUGAACCAGAGAAACACACGUUCUGGUAUAGUACCUGGUA [G54C U62G]	0.141
GUCCUCUUUCACGUGCGCGUGAAAGAGAGAAGUGAACCAGAGAAACACACGUUUUGGUAUAUUACCUGGUG [G54U A71G]	0.552
GUCCUCUUUCACGUGCGCGUGAAAGAGAGAAGUGAACCAGAGAAACACACGUUUUGGUAUAUUACCUGGUU [G54U A71U]	0.333
GUCCUCUUUCACGUGCGCGUGAAAGAGAGAAGUGAACCAGAGAAACACACGUUAUGGUAUAUAACCUGGUA [G54A U63A]	0.209
GUCCUCUUUCACGUGCGCGUGAAAGAGAGAAGUGAACCAGAGAAACACACGUUGAGGUAUAUUACCUGGCA [U55A U70C]	0.311

Variant	self-cleavage
GUCCUCUUUCACGUGCGCGUGAAAGAGAGAAGUGAACCAGAGAAACACACGUUGAGGUAUAUUACCUGGGA [U55A U70G]	0.342
GUCCUCUUUCACGUGCGCGUGAAAGAGAGAAGUGAACCAGAGAAACACACGUUAUGGUAUAUUACCCGGUA [G54A U67C]	0.12
GUCCUCUUUCACGUGCGCGUGAAAGAGAGAAGUGAACCAGAGAAACACACGUUAUGGUAUAUUACCAGGUA [G54A U67A]	0.206
GUCCUCUUUCACGUGCGCGUGAAAGAGAGAAGUGAACCAGAGAAACACACGUUUUGGUAUAUUACCGGGUA [G54U U67G]	0.171
GUCCUCUUUCACGUGCGCGUGAAAGAGAGAAGUGAACCAGAGAAACACACGUUGCGGUAUAUUACUUGGUA [U55C C66U]	0.157
GUCCUCUUUCACGUGCGCGUGAAAGAGAGAAGUGAACCAGAGAAACACACGUUUUGGUAUAUUACGUGGUA [G54U C66G]	0.181
GUCCUCUUUCACGUGCGCGUGAAAGAGAGAAGUGAACCAGAGAAACACACGUUGCGGUAUAUUUCCUGGUA [U55C A64U]	0.154
GUCCUCUUUCACGUGCGCGUGAAAGAGAGAAGUGAACCAGAGAAACACACGUUAUGGUAUAAUACCUGGUA [G54A U62A]	0.188
GUCCUCUUUCACGUGCGCGUGAAAGAGAGAAGUGAACCAGAGAAACACACGUUAUGGUAUAGUACCUGGUA [G54A U62G]	0.0558
GUCCUCUUUCACGUGCGCGUGAAAGAGAGAAGUGAACCAGAGAAACACACGUUGAGGUUUAUUACCUGGUA [U55A A59U]	0.205
GUCCUCUUUCACGUGCGCGUGAAAGAGAGAAGUGAACCAGAGAAACACACGUUGAGGUAUAUCACCUGGUA [U55A U63C]	0.106
GUCCUCUUUCACGUGCGCGUGAAAGAGAGAAGUGAACCAGAGAAACACACGUUGAGGUAUAUAACCUGGUA [U55A U63A]	0.0786
GUCCUCUUUCACGUGCGCGUGAAAGAGAGAAGUGAACCAGAGAAACACACGUUGCGGUAUAUUACCUUGUA [U55C G68U]	0.0915
GUCCUCUUUCACGUGCGCGUGAAAGAGAGAAGUGAACCAGAGAAACACACGUUGCGGUAUAUUACCUCGUA [U55C G68C]	0.159
GUCCUCUUUCACGUGCGCGUGAAAGAGAGAAGUGAACCAGAGAAACACACGUUGAGGUAUUUUACCUGGUA [U55A A61U]	0.214
GUCCUCUUUCACGUGCGCGUGAAAGAGAGAAGUGAACCAGAGAAACACACGUUCUGGUAUAUUCCCUGGUA [G54C A64C]	0.104
GUCCUCUUUCACGUGCGCGUGAAAGAGAGAAGUGAACCAGAGAAACACACGUUAUGGUAUAUUACCUGGAA [G54A U70A]	0.409
GUCCUCUUUCACGUGCGCGUGAAAGAGAGAAGUGAACCAGAGAAACACACGUUAUGGUAUAUUACCUGGCA [G54A U70C]	0.244
GUCCUCUUUCACGUGCGCGUGAAAGAGAGAAGUGAACCAGAGAAACACACGUUAUGGUAUAUUACCUGGGA [G54A U70G]	0.387

Source: the RNAGym collection of RNA variant scans (doi:10.7554/elife.80360)
